Source: publication PMC3169630
pKd: −log10 of the molar value.

Legend:
[1] = target: recombinant human Siglec-7 Fc fusion protein (human) (UniProt Q9Y286); assay: SPR; BIAcore 3000, CM5 chip; Siglec-Fc immobilised at high density (12000–20000 RU); gp120 in PBS or HBS-P injected at 20 µL/min; KD from kinetic curve fitting
[2] = target: recombinant human Siglec-5 Fc fusion protein (human) (UniProt O15389); assay: as above
[3] = target: recombinant human Siglec-3 Fc fusion protein (human) (UniProt P20138); assay: as above
[4] = target: recombinant human Siglec-7 Fc fusion protein (human) (UniProt Q9Y286); assay: SPR; BIAcore 3000, CM5 chip; Siglec-Fc immobilised at moderate density (2000–7000 RU; capture with immobilized protein A or amine cross-link); gp120 10–500 nM in PBS or HBS-P injected at 20 µL/min; KD from kinetic curve fitting
[5] = target: recombinant human Siglec-9 Fc fusion protein (human) (UniProt Q9Y336); assay: as above
[6] = target: recombinant human Siglec-5 Fc fusion protein (human) (UniProt O15389); assay: as above
[7] = target: recombinant human Siglec-3 Fc fusion protein (human) (UniProt P20138); assay: as above
[8] = target: recombinant human Siglec-1-Fc (four N-terminal Ig domains of hSiglec-1 fused to the Fc regions of human IgG1) (human); assay: as above

UniProt Q9Y336, sequence (Q9Y336 18-348): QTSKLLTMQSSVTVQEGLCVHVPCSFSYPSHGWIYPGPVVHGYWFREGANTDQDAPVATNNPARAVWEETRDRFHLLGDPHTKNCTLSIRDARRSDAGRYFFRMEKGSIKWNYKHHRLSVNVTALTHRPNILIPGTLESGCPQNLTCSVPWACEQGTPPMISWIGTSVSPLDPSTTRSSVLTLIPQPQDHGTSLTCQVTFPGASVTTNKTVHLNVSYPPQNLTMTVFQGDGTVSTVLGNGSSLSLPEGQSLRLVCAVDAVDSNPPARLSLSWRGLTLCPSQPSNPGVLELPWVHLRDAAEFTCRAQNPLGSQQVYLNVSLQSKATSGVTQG
UniProt Q9Y286, sequence (Q9Y286 19-353): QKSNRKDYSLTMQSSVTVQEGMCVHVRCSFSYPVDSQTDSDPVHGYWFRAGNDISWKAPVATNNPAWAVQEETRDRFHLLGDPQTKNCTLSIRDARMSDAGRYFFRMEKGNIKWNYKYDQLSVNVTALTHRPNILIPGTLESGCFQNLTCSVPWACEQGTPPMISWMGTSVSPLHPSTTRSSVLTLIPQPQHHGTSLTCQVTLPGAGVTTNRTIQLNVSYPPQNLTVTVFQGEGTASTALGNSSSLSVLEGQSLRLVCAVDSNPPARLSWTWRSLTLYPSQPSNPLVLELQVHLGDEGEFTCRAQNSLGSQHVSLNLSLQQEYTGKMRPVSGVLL
UniProt P20138, sequence (P20138 18-259): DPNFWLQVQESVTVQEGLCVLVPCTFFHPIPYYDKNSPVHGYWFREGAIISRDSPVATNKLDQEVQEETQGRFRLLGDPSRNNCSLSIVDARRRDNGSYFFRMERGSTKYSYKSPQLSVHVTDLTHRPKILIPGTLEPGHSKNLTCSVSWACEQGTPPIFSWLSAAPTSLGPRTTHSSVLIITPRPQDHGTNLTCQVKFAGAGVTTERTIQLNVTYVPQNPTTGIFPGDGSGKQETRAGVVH
UniProt O15389, sequence (O15389 17-441): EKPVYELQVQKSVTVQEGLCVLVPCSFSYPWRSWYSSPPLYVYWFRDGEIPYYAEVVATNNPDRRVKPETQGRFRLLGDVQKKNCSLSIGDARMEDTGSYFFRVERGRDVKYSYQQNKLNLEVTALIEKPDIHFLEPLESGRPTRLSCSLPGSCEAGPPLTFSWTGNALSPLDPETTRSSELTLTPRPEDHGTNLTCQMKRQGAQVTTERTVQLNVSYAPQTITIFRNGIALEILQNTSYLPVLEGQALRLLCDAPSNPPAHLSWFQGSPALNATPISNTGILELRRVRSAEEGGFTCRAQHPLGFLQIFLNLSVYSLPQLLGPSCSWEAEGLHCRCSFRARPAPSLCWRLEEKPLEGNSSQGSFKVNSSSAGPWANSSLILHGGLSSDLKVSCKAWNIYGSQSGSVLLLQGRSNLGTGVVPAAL

Substance | pKd [1] | pKd [2] | pKd [3] | pKd [4] | pKd [5] | pKd [6] | pKd [7] | pKd [8]
recombinant gp120 from the 92UG21-9 HIV-1 isolate (natural protein) | 7.30 | 7.30 | 7.10 | 4.31 | 7.30 | 4.33 | 5.42 | 7.10
recombinant gp120 from the 92US715 HIV-1 isolate (natural protein) | 7.40 | 7.70 | 8.10 | 4.27 | 7.64 | 5.03 | 4.24 | 6.89
recombinant gp120 from the 93MW959 HIV-1 isolate (natural protein) | 7.70 | 7.82 | 7.92 | – | – | – | – | –
recombinant gp120 from the 93UG037 HIV-1 isolate (monomeric) (natural protein) | 7.03 | 7.27 | 7.29 | 5.00 | 7.00 | 4.69 | – | 5.20
recombinant gp120 from the SIVsmm PBj1.9 isolate (natural protein) | 7.72 | 7.85 | 6.74 | 4.45 | 6.57 | 4.30 | 4.26 | 6.92
trimeric gp120 from the 93UG037 strain fused with a trimerization domain from T4 bacteriophage fibritin | – | – | – | 5.57 | 7.10 | 5.29 | – | 6.05
